Article PMC8161381

Tests used:
[1] = biological target: T1, human cathepsin K (human) (UniProt P43235)
T1 sequence: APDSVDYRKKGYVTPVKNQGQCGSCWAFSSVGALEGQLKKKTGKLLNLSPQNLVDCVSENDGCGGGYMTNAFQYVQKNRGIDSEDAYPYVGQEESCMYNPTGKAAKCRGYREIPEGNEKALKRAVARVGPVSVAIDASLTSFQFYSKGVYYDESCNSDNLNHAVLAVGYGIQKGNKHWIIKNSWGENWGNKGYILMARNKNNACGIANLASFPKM

[2] = biological target: human cathepsin L (human)
[3] = biological target: cathepsin L-like activity of I. ricinus gut tissue extract (Ixodes ricinus (endogenous in gut tissue))
[4] = biological target: T2, human cathepsin H (human)
T2 sequence (P09668 116-335, looked up): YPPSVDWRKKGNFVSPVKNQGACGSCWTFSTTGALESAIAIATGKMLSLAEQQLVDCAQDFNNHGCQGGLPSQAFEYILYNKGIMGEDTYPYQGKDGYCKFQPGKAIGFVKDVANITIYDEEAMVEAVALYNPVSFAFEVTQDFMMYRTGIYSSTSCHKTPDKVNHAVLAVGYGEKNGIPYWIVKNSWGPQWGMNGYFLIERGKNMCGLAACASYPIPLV

[5] = biological target: Ixodes ricinus cathepsin B, native in gut tissue extract (Ixodes ricinus (endogenous in gut tissue))
[6] = biological target: human cathepsin S (human) (UniProt P25774)
Sequence of human cathepsin S (human) (P25774 115-331): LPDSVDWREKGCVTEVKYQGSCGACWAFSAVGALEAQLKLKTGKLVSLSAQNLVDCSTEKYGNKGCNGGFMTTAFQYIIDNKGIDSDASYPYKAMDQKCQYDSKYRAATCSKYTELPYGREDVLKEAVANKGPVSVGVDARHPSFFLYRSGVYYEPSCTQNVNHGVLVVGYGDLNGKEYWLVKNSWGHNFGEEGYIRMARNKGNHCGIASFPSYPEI

[7] = biological target: human cathepsin C (human)
Sequence of human cathepsin C (human) (P53634 25-463): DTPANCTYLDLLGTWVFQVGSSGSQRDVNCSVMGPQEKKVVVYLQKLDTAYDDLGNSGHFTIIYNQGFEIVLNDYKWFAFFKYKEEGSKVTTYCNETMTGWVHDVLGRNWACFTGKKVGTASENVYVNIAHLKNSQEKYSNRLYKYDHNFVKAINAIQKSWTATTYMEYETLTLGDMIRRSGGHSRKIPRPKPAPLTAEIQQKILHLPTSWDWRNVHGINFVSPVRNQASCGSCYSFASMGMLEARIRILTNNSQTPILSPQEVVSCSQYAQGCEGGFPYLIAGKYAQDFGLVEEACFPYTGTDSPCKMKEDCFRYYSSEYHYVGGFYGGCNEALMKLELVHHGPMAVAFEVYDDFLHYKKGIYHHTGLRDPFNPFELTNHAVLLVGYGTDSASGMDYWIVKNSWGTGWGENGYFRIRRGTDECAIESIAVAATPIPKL

[8] = biological target: Ixodes ricinus cathepsin L1 (Ixodes ricinus)
[9] = biological target: Ixodes ricinus cathepsin L3 (Ixodes ricinus)
[10] = biological target: cathepsins L and B activity of I. ricinus gut tissue extract (Ixodes ricinus (endogenous in gut tissue))
[11] = biological target: Ixodes ricinus cathepsin C, native in gut tissue extract (Ixodes ricinus (endogenous in gut tissue))
[12] = biological target: human cathepsin B (human)

Sequence of human cathepsin L (human) (P07711 18-333): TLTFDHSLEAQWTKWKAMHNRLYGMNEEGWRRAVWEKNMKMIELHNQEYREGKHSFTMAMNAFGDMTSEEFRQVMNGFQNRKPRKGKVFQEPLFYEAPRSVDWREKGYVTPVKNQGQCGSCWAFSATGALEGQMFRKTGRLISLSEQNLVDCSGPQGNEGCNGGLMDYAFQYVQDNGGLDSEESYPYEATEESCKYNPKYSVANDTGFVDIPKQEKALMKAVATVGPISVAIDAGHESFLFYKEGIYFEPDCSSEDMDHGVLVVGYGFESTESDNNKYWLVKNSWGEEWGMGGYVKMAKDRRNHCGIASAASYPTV

B1: mialostatin (natural protein)
chain: GSASRSKRALVGGWKTQDPTNPKFENLAHYAVSTQVEGREYYDTVLELLEVQTQIVAGVNYKLKFTTTQSTCKIETGVEYSKELCQPKTNKVEAVCTSIIYTVPWQNIKRVLSYHCDAPNDV
IC50 of inhibition of protease activity (kinetic assay, 5 nM cathepsin K, Z-Leu-Arg-AMC, pH 5.5, 37 °C) [1]: 9.7 nM
IC50 of inhibition of protease activity (kinetic assay, 33 pM cathepsin L, Z-Leu-Arg-AMC, pH 5.5, 37 °C) [2]: 0.38 nM
IC50 of inhibition of cathepsin L activity in gut tissue extract (kinetic assay, Z-Phe-Arg-AMC, pH 4.5, with CA-074, 37 °C) [3]: 0.18 nM
IC50 of inhibition of protease activity (kinetic assay, 20 nM cathepsin H, Z-Leu-Arg-AMC, pH 6.8, 37 °C) [4]: 24 nM
IC50 of inhibition of cathepsin B activity in gut tissue extract (kinetic assay, Z-Arg-Arg-AMC, pH 6.5, with Z-Phe-Phe-DMK, 37 °C) [5]: 12.1 nM
IC50 of inhibition of protease activity (kinetic assay, 350 pM cathepsin S, Z-Val-Val-Arg-AMC, pH 5.5, 37 °C) [6]: 2.2 nM
IC50 of inhibition of protease activity (kinetic assay, 0.5 nM cathepsin C, Gly-Arg-AMC, pH 5.5, 37 °C) [7]: 2.1 nM
IC50 of inhibition of protease activity (kinetic assay, 0.1 nM IrCL1, Z-Phe-Arg-AMC, pH 4.5, 37 °C) [8]: 0.071 nM
IC50 of inhibition of protease activity (kinetic assay, 20 pM IrCL3, Z-Phe-Arg-AMC, pH 4.5, 37 °C) [9]: 0.39 nM
IC50 of inhibition of cathepsins L and B activity in gut tissue extract (kinetic assay, Z-Phe-Arg-AMC, pH 5.0, 37 °C) [10]: 3.1 nM
IC50 of inhibition of cathepsin C activity in gut tissue extract (kinetic assay, Gly-Arg-AMC, pH 5.5, with E-64, 37 °C) [11]: 91.7 nM
IC50 of inhibition of protease activity (kinetic assay, 35 pM cathepsin B, Z-Leu-Arg-AMC, pH 5.5, 37 °C) [12]: 9 nM
